Measurements as given in patent US20200299380A1 (published 2020).

T1: human ULBP-1-Fc (R&D systems) (human, UniProt Q9BZM6 26-216, limits assumed)
T1 construct: Bought; not shown: Fc of the bought fusion protein
T1 sequence (looked up): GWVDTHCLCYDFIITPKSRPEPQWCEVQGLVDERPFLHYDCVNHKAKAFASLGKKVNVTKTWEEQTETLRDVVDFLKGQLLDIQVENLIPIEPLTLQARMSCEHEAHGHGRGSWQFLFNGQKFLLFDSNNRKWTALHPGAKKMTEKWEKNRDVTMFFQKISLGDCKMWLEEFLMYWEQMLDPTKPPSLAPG

T2: MICB-Fc (R&D Systems 1599-MB) (human, UniProt Q29980 23-298, limits assumed)
T2 construct: Bought; also called human MICB-Fc; not shown: Fc of the bought fusion protein
T2 sequence: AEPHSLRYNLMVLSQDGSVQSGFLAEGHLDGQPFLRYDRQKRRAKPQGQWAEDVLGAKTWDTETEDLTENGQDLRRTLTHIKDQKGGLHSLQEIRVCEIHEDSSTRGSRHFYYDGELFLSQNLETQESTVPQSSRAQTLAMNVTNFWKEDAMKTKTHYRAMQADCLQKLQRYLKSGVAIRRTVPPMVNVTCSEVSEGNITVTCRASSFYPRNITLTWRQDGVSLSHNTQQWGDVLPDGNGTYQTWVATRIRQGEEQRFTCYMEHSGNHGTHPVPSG

T3: MICA*007 expressed at the cell surface (human, UniProt Q29983 24-297)
T3 construct: also called C1R-MICA*007; C1R-MICA*07
T3 chain: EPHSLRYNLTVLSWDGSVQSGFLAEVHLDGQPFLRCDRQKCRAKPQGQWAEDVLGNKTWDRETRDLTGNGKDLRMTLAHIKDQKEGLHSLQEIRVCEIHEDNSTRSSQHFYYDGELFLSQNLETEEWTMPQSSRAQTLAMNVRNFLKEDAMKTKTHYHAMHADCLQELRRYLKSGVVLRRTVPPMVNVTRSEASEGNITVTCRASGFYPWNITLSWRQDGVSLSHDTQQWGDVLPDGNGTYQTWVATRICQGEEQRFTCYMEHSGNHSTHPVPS

T4: MICA*001 expressed at the cell surface (human, UniProt Q29983 24-297)
T4 sequence: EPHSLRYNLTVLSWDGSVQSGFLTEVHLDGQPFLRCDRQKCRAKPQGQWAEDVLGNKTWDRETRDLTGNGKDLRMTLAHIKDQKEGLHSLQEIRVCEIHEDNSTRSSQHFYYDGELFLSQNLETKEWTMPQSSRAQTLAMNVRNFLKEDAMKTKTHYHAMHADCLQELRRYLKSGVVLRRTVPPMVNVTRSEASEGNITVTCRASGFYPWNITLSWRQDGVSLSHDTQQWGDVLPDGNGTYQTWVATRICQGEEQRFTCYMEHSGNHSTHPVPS

T5: MICA*008 expressed at the cell surface (human, UniProt Q29983 24-297)
T5 construct: also called C1R-MICA*008; C1R-MICA*08
T5 chain: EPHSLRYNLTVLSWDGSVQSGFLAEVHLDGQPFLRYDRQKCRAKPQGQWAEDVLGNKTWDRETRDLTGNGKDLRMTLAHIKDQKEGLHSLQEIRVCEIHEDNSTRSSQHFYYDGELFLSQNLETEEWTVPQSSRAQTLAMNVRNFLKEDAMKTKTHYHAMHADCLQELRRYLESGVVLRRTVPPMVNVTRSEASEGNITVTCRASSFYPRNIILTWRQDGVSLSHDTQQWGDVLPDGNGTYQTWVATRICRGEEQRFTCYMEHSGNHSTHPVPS


How the values were obtained:
[1] = target: T1, human ULBP-1-Fc (R&D systems); assay: SPR, antibody injected over immobilized ULBP-1-Fc
Description: (§1) For cross-binding study, the human ULBP-1-Fc (R&D systems*), MICB-Fc (*), ULBP-2-Fc (*) and ULBP-3-Fc (*) recombinant proteins were covalently immobilized respectively on the flow cell one to four of a CM5 sensorchip. Anti-MICA antibodies (at a constant concentration of 10 μg/ml) were injected for 2 minutes at a flow rate of 10 μl/min onto the four flow cells in parallel. After each cycle, Sensorchip was regenerated by a five second injection of appropriate regeneration buffer.

[2] = target: T2, MICB-Fc (R&D Systems 1599-MB); assay: SPR, antibody at 10 µg/ml injected over immobilized MICB-Fc
Description: as §1

[3] = target: T3, MICA*007 expressed at the cell surface; assay: flow cytometry on C1R transfectant cells, 4-parameter logistic fit
[4] = target: T4, MICA*001 expressed at the cell surface; assay: cell-based or functional assay
[5] = target: T5, MICA*008 expressed at the cell surface; assay: flow cytometry on C1R transfectant cells
Description: The binding of antibodies obtained from the first, second and third immunization series (including CHG1-M-MIA-19E9, CHG1-M-MIA-9C10, CHG1-M-MIA-6E4, CHG1-M-MIA-20C6, CHG1-M-MIA-16A8, CHG1-M-MIA-12A10, CHG1-M-MIA-10A7, CHG1-M-MIA-18E8, CHG1-M-MIA-10F3, CHG1-M-MIA-15F9 and CHG1-M-MIA-14B4) were tested for binding to MICA-expressing CR1 transfectant cells C1R-MICA*001, C1R-MICA*004, C1R-MICA*007 and C1R-MICA*008 (Pr. A. Steinle, Eberhard-Karls University Tuebingen, Germany) described in Salih et al. (2003) Blood 102(4): […]. Binding was analyzed by flow cytometry.
Cells were harvested and stained in PBS 1×/BSA 0.2%/EDTA 2 mM buffer during 30 minutes at 4° C. using a dose-range of the anti-MICA mAbs. After two washes in staining buffer, cells were stained for 30 min at 4° C. with mouse anti-human IgG1-PE monoclonal antibodies (1/11). After two washes, stainings were acquired on a BD FACS Canto II and analyzed using the FlowJo software.

[6] = target: T5, MICA*008 expressed at the cell surface; assay: flow cytometry on C1R transfectant cells, 4-parameter logistic fit
[7] = target: T2, MICB-Fc (R&D Systems 1599-MB); assay: SPR, antibody injected over immobilized MICB-Fc
Description: as §1

Row | binding result [1] | binding result [2] | EC50 [3] [µg/mL] | CDC: EC50 of the increase in dead (7-AAD positive) Raji-MICA*01 cells with human complement [4] [µg/mL] | binding result [5] | EC50 [6] [µg/mL] | binding result [7] | Binder
1 | no binding (tested: 10 µg/ml) | binds |  |  |  |  |  | CHG1-M-MIA-16A8 (antibody, V domains shown, also called CHG1-M-MIA2-16A8; chimeric anti-MICA 16A8) VH: EVQLVESGGGLVKPGGSLKLSCAASGFTFSRYAMSWVRQTPEKRLEWVATIFSGGSYTYYPDSVKGRFTISRDNANNTLYLQMSSLKAEDTAMYFCARPNWERTFDYWGQGTTLTVSS VL: not shown
2 | no binding (tested: 10 µg/ml) | binds | 1.23 | 1.01 | binds |  |  | CHG1-M-MIA-6E4 (antibody, V domains shown, also called chimeric anti-MICA 6E4) VH: EVQLVESGGALVKPGGSLKLSCAASGFTFSYYAMSWVRQTPEKRLEWVATISRGGNYIYYTDSVKGRFTISRDNAKNTLYLQMTSLRSEDTAMFYCASISDYDGAWLAYWGQGTTLTVSS VL: DVLMTQTPLSLPVSLGDQASISCRSSQSIIHTNGNTYLEWYLQKPGQSPKLLIYKISNRFSGVPDRFSGSGSGTDFTLKISRVEAEDLGVYYCFQGSHVPWTFGGGTKLEIKR
3 | no binding (tested: 10 µg/ml) |  | 0.4 | 0.97 |  | 0.13 | no binding (tested: 10 µg/ml) | CHG1-M-MIA-20C6 (antibody, V domains shown, also called chimeric anti-MICA 20C6) VH: QITLKESGPGILKPSQTLSLTCSFSGFSLSTSGMGVGWIRQPSGKGLEWLAHIWWDDDKYYNPSLKSQLTISKDTSRNQVFLRITSVDTADTATYYCARRTQGYFDYWGQGTTLTVSS VL: DIVMTQSPATLSVTPGDRVSLSCRASQSISDYLHWYQQKSHESPRLLIKYASQSISGIPSRFSGSGSGSDFTLSINSVEPEDVGVYYCQNGHSFPWTFGGGTKLEIKR
